Experiment [1] concerns the target NirD (purified, untagged) (Escherichia coli) (UniProt P0A9I8). Description: BLI; biotinylated NirD or NirD^E50K on streptavidin biosensors, RelA^N-terminal as analyte (up to 30 µM); BLItz, 25°C; 50 mM Tris-HCl pH 8.0, 500 mM NaCl, 500 mM KCl, 2 mM β-mercaptoethanol, 2% glycerol; KD from steady-state responses, one site model.
Experiment [2] deals with T1, RelA^N-terminal (purified RelA catalytic domains) (Escherichia coli).
T1 sequence (P0AG20 whole entry, looked up): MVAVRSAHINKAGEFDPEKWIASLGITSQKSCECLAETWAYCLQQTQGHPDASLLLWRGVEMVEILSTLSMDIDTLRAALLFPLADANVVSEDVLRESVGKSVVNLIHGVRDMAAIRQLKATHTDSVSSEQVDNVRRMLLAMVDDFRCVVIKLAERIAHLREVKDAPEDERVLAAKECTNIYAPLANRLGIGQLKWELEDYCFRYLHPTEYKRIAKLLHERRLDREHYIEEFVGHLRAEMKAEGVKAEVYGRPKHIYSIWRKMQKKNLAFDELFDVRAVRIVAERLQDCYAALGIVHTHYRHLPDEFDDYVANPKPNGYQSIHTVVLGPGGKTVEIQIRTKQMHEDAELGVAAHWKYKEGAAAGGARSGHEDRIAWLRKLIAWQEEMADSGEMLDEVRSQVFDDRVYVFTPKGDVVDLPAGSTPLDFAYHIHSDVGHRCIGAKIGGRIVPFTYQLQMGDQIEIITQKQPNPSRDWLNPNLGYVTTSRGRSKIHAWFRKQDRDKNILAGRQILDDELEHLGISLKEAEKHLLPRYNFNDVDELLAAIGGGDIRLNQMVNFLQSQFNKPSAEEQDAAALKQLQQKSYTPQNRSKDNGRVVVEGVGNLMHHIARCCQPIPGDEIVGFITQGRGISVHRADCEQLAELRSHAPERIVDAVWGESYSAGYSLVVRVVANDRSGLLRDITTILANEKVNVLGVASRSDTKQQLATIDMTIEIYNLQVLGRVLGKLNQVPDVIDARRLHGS
In words: ITC; RelA^N-terminal (30 µM) in the cell, NirD or NirD^E50K (300 µM) in the syringe; 25°C; 50 mM Tris-HCl pH 8.0, 500 mM NaCl, 500 mM KCl, 2 mM β-mercaptoethanol, 2% glycerol; One Set of Sites model. (ITC needs no label: the signal is the heat of the interaction.)

The target is the same in experiment [3].

A word on the Kd: it is the equilibrium constant for the complex coming apart. Lower therefore signals a tighter complex. In turn, “RelA^N-terminal (purified RelA catalytic domains) (domain or fragment)” registered a Kd in experiment [1] of 550 nM.

B1: NirD (purified, untagged) (natural protein)
chain: MSQWKDICKIDDILPETGVCALLGDEQVAIFRPYHSDQVFAISNIDPFFESSVLSRGLIAEHQGELWVASPLKKQRFRLSDGLCMEDEQFSVKHYEARVKDGVVQLRG
modifications: biotinylated with EZ-Link NHS-PEG4-Biotin for the biolayer interferometry only
For B1, in experiment [2], the Kd was found to be 340 nM and the dH is -3.63 kcal/mol. Moreover, the in vitro pppGpp synthesis by 1 µM RelA^N-terminal with 4 µM NirD: percent of GTP converted to pppGpp within 60 min (80% without NirD) in experiment [3] was 30%.

Values taken from article PMC8321558.
